Data taken from paper PMC10760178.

Target: Catabolite Repressor Activator protein (Cra), wild-type, untagged (E. coli) (UniProt P0ACP1)
Experiment: BLI

UniProt P0ACP1, sequence (P0ACP1 whole entry): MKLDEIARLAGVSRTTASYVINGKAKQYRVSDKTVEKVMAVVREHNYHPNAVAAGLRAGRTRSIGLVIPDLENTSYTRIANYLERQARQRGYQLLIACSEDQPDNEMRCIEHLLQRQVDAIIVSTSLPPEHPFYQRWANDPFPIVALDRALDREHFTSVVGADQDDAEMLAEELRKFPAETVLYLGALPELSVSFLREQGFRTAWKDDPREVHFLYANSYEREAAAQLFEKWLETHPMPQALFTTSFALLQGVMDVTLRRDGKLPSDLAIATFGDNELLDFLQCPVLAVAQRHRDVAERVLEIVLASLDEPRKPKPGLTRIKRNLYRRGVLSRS

Substance: His-tagged FruK (pET3a) for BLI (from UniProt P0AEW9 1-312) (enzyme)
- Kd: 2.1 nM
